{"source": "paper PMC10953043", "about": "“Fluorogenic Granzyme A Substrates Enable Real‐Time Imaging of Adaptive Immune Cell Activity” (Angewandte Chemie (Weinheim an Der Bergstrasse, Germany), 2023)", "proteins": {"B1": {"name": "human GzmA (hGzmA), active recombinant (Homo sapiens) (protein)", "chain": "IIGGNEVTPHSRPYMVLLSLDRKTICAGALIAKDWVLTAAHCNLNKRSQVILGAHSITREEPTKQIMLVKKEFPYPCYDPATREGDLKLLQLMEKAKINKYVTILHLPKKGDDVKPGTMCQVAGWGRTHNSASWSDTLREVNITIIDRKVCNDRNHYNFNPVIGMNMVCAGSLRGGRDSCNGDSGSPLLCEGVFRGVTSFGLENKCGDPRGPGVYILLSKKHLNWIIMTIKGAV", "notes": "active recombinant enzyme (not the pro-form), dimeric"}}, "substrate": "CC[C@H](C)[C@H](NC(C)=O)C(=O)NCC(=O)N[C@@H](CC(N)=O)C(=O)N[C@@H](CCCNC(=N)N)C(=O)Nc1ccc(COc2ccc3c(c2)OC2=C(/C=C/C4=[N+](C)c5ccccc5C4(C)C)CCCC2=C3)cc1", "experiment": "fluorogenic NIR assay, Michaelis-Menten fit", "format": "biochemical, Homo sapiens", "details": "Tris buffer pH 8, 37 °C, 20 nM hGzmA, cleaved after Arg", "data": [{"protein": "B1", "values": [{"measurement": "Km", "result": "6.9±1.0×10^-6 M"}, {"measurement": "kcat", "result": "0.26 ± 0.04", "unit": "s⁻¹"}]}]}
